For this assay, the target named is T1, Ad5 hexon, in the virion (human adenovirus 5, UniProt P04133 1-952).
T1 construct: source: in Ad5 (E1/E3 deleted) virions, bought: ViraQuest
The assay is described as follows: co-IP. To be noted: both partners purified.

T1 sequence (P04133 whole entry): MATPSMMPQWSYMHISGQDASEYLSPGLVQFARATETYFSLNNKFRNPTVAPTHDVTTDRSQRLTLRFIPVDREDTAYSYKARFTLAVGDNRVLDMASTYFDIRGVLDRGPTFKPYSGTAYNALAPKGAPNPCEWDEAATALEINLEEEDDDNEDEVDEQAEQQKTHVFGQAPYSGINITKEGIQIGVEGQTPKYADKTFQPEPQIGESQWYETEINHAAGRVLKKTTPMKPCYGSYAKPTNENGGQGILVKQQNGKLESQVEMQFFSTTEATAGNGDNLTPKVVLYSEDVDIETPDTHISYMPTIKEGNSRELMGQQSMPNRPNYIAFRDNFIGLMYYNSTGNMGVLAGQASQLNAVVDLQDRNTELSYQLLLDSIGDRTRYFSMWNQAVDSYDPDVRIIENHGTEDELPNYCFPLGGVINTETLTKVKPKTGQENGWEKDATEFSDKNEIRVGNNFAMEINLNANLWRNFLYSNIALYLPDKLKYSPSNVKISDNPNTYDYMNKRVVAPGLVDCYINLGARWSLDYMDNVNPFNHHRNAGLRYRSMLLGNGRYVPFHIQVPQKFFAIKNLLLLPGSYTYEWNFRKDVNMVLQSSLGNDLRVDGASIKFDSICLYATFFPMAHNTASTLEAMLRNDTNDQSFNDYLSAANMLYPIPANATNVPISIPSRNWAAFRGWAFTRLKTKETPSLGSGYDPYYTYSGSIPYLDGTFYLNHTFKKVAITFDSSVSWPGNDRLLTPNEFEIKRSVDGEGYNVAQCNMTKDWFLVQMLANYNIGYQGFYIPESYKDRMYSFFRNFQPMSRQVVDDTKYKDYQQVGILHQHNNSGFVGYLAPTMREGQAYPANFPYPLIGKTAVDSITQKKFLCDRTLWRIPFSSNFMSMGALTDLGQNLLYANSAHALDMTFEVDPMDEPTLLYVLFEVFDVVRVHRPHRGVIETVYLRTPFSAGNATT

B1: Ad5 penton base (natural protein)
chain: MRRAAMYEEGPPPSYESVVSAAPVAAALGSPFDAPLDPPFVPPRYLRPTGGRNSIRYSELAPLFDTTRVYLVDNKSTDVASLNYQNDHSNFLTTVIQNNDYSPGEASTQTINLDDRSHWGGDLKTILHTNMPNVNEFMFTNKFKARVMVSRLPTKDNQVELKYEWVEFTLPEGNYSETMTIDLMNNAIVEHYLKVGRQNGVLESDIGVKFDTRNFRLGFDPVTGLVMPGVYTNEAFHPDIILLPGCGVDFTHSRLSNLLGIRKRQPFQEGFRITYDDLEGGNIPALLDVDAYQASLKDDTEQGGGGAGGSNSSGSGAEENSNAAAAAMQPVEDMNDHAIRGDTFATRAEEKRAEAEAAAEAAAPAAQPEVEKPQKKPVIKPLTEDSKKRSYNLISNDSTFTQYRSWYLAYNYGDPQTGIRSWTLLCTPDVTCGSEQVYWSLPDMMQDPVTFRSTRQISNFPVVGAELLPVHSKSFYNDQAVYSQLIRQFTSLTHVFNRFPENQILARPPAPTITTVSENVPALTDHGTLPLRNSIGGVQRVTITDARRRTCPYVYKALGIVSPRVLSSRTF
notes: source: in Ad5 (E1/E3 deleted) virions, bought: ViraQuest
With B1, the binding result is on record as “binds”.

B2: Ad5 fiber protein (natural protein)
chain: MKRARPSEDTFNPVYPYDTETGPPTVPFLTPPFVSPNGFQESPPGVLSLRLSEPLVTSNGMLALKMGNGLSLDEAGNLTSQNVTTVSPPLKKTKSNINLEISAPLTVTSEALTVAAAAPLMVAGNTLTMQSQAPLTVHDSKLSIATQGPLTVSEGKLALQTSGPLTTTDSSTLTITASPPLTTATGSLGIDLKEPIYTQNGKLGLKYGAPLHVTDDLNTLTVATGPGVTINNTSLQTKVTGALGFDSQGNMQLNVAGGLRIDSQNRRLILDVSYPFDAQNQLNLRLGQGPLFINSAHNLDINYNKGLYLFTASNNSKKLEVNLSTAKGLMFDATAIAINAGDGLEFGSPNAPNTNPLKTKIGHGLEFDSNKAMVPKLGTGLSFDSTGAITVGNKNNDKLTLWTTPAPSPNCRLNAEKDAKLTLVLTKCGSQILATVSVLAVKGSLAPISGTVQSAHLIIRFDENGVLLNNSFLDPEYWNFRNGDLTEGTAYTNAVGFMPNLSAYPKSHGKTAKSNIVSQVYLNGDKTKPVTLTITLNGTQETGDTTPSAYSMSFSWDWSGHNYINEIFATSSYTFSYIAQE
notes: as for B1
Consider B2, for which the binding result was “binds”.

(Values after article PMC6461443, “Complement C4 Prevents Viral Infection through Capsid Inactivation” (Cell Host & Microbe, 2019).)
